Each binder was assayed against recombinant huCLDN18.2-Fc (Sino Biological, P/N: 20047-H02H) (human) (assay: KinExA 4000 equilibrium, antibody constant, recombinant huCLDN18.2-Fc titrated).

| Kd [nM] | Binder |
| --- | --- |
| 1.7 | YL-G2-B (antibody, human IgG1, kappa) heavy: EVQLQQSGPELEKPGASVKISCKASGYSFTGYKMNWVKQSNGKSLEWIGNIDPYYGGTTYNQKFKGKATLTVDKSSSTAYMQLKSLTSEDSAVYYCARYGKGNTMDYWGQGTSVTVSSASTKGPSVFPLAPSSKSTSGGTAALGCLVKDYFPEPVTVSWNSGALTSGVHTFPAVLQSSGLYSLSSVVTVPSSSLGTQTYICNVNHKPSNTKVDKRVEPKSCDKTHTCPPCPAPELVGGPSVFLLPPKPKDTLMISRTPEVTCVVVDVSHEDPEVKFNWYVDGVEVHNAKTKPPEEQYNSTLRVVSVLTVLHQDWLNGKEYKCKVSNKALPAPIEKTISKAKGQPREPQVYTLPPSREEMTKNQVSLTCLVKGFYPSDIAVEWESNGQPENNYKTTPLVLDSDGSFFLYSKLTVDKSRWQQGNVFSCSVMHEALHNHYTQKSLSLSPGK light: DIVMTQSPSSLTVTAGEKVTMSCKSSQSLLNSGNQKNYLTWYQQRPGQPPKLLIYWASTRESGVPVRFTGSGSGTDFTLTISSVQAEDLAVYYCQNAYIYPLTFGTGTKLELKRTVAAPSVFIFPPSDEQLKSGTASVVCLLNNFYPREAKVQWKVDNALQSGNSQESVTEQDSKDSTYSLSSTLTLSKADYEKHKVYACEVTHQGLSSPVTKSFNRGEC |
| 6.4 | YL-G2-D (antibody, human IgG1, kappa) heavy: QLQQSGPELEKPGASVKISCKASGYSFTGYKMNWVKQSNGESLEWIGNIDPYYGDTTYTQKFKGKATFTVDTSSSTAYMQLKSLTSEDSAVYFCARYNRGNTMDYWGQGTSVTVSSASTKGPSVFPLAPSSKSTSGGTAALGCLVKDYFPEPVTVSWNSGALTSGVHTFPAVLQSSGLYSLSSVVTVPSSSLGTQTYICNVNHKPSNTKVDKRVEPKSCDKTHTCPPCPAPELVGGPSVFLLPPKPKDTLMISRTPEVTCVVVDVSHEDPEVKFNWYVDGVEVHNAKTKPPEEQYNSTLRVVSVLTVLHQDWLNGKEYKCKVSNKALPAPIEKTISKAKGQPREPQVYTLPPSREEMTKNQVSLTCLVKGFYPSDIAVEWESNGQPENNYKTTPLVLDSDGSFFLYSKLTVDKSRWQQGNVFSCSVMHEALHNHYTQKSLSLSPGK light: DIVMTQSPSSLTVTAGEKVTLSCKSSQSLLNSGNQKNYLTWYQQRPGQPPKLLIYWASTRESGVPVRFTGSGSGADFTLTISSVQAEDLAVYFCQNAYFYPLTFGTGTKLELRRTVAAPSVFIFPPSDEQLKSGTASVVCLLNNFYPREAKVQWKVDNALQSGNSQESVTEQDSKDSTYSLSSTLTLSKADYEKHKVYACEVTHQGLSSPVTKSFNRGEC |
| 3.8 | YL-G2-C (antibody, human IgG1, kappa) heavy: QIQLVQSGPELRKPGETVKISCKASGFPFTTDGMSWVKQAPGKGLKWMGWINTYSGVPTYADDFKGRVAFSLETSASTAYLQIKNLKNEDTATYFCARFRRGNALDNWGQGTSVTVSSASTKGPSVFPLAPSSKSTSGGTAALGCLVKDYFPEPVTVSWNSGALTSGVHTFPAVLQSSGLYSLSSVVTVPSSSLGTQTYICNVNHKPSNTKVDKRVEPKSCDKTHTCPPCPAPELVGGPSVFLLPPKPKDTLMISRTPEVTCVVVDVSHEDPEVKFNWYVDGVEVHNAKTKPPEEQYNSTLRVVSVLTVLHQDWLNGKEYKCKVSNKALPAPIEKTISKAKGQPREPQVYTLPPSREEMTKNQVSLTCLVKGFYPSDIAVEWESNGQPENNYKTTPLVLDSDGSFFLYSKLTVDKSRWQQGNVFSCSVMHEALHNHYTQKSLSLSPGK light: DIVMTQSPSSLTVTAGEKVTMSCKSSQSLLNSGNQKNYLTWYQQKPGQPPKLLIYWASTRESGVPDRFTGSGSGTDFTLTISSVQAEDLAIYYCQNNYFYPLTFGAGTRLELKRTVAAPSVFIFPPSDEQLKSGTASVVCLLNNFYPREAKVQWKVDNALQSGNSQESVTEQDSKDSTYSLSSTLTLSKADYEKHKVYACEVTHQGLSSPVTKSFNRGEC |
